According to the supplement of paper PMC12764529:
± gives the half width of the 95% confidence interval.

Tests used:
[1] = folding stability dG unfold from trypsin proteolysis; higher = more stable
Procedure, shortened: (§1)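 How resistant each design was to proteolysis was captured as K50, inferred by Bayesian fitting of sequencing counts. Unfolding free energy was then derived relative to a sequence-predicted unfolded-state K50 and a shared folded-state K50, per protease or combined. Digestion used trypsin and chymotrypsin at 11 threefold-diluted concentrations plus a no-protease condition, on mini-proteins under 80 residues without cysteine in a PA-tagged cDNA display construct. Designs were kept only when AlphaFold2 dimer inter-PAE was above 15.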

[2] = folding stability dG unfold from chymotrypsin proteolysis; higher = more stable
Procedure, shortened: as §1

[3] = folding stability dG unfold (combined trypsin and chymotrypsin); higher = more stable
Procedure, shortened: as §1

For “SAGPTIMIPMPPKESLEEAVEKAIEWIREFFPDNLKPGKKIKIFVHVWDPDNGKQYWVTIEIPIPKGELSAG [r5_916_TrROS]”, the “folding stability dG unfold” value [1] was 2.48 ± 0.22 kcal/mol, the “folding stability dG unfold” value [2] was 3.62 ± 0.057 kcal/mol and the “folding stability dG unfold” value [3] was 3.19 ± 0.25 kcal/mol.

With “SAGGPKTIMAMIPRDSPELRKALKWLEKAPPGEEVELKLPGKPIRITNIQPVDDWWMFSVKIPPGLKSAGGS [r16_404_TrROS]” the “folding stability dG unfold” value [1] was 1.52 ± 0.16 kcal/mol, the “folding stability dG unfold” value [2] was 0.462 ± 0.31 kcal/mol and the “folding stability dG unfold” value [3] was 0.885 ± 0.19 kcal/mol.

With “SAGGSASMKIRVYTISLYRPDGESVRDVPIVVPENEPDVDPEALAKAIADELGLVKVEISEEIVPLSAGGSA [r15_333_JUSTAS]” the “folding stability dG unfold” value [1] was 0.589 ± 0.097 kcal/mol, the “folding stability dG unfold” value [2] was 1.4 ± 0.31 kcal/mol and the “folding stability dG unfold” value [3] was 1.14 ± 0.18 kcal/mol.

For “SAGGSAGGSAGKKYKVVEVKENKDGTVELVVENENGEKKKITLSKEELDKLKAGDTVELKSAGGSAGGSAGG [r11_943_TrROS_Hall]”, the “folding stability dG unfold” value [1] was 2.01 ± 0.11 kcal/mol, the “folding stability dG unfold” value [2] was 2.7 ± 0.057 kcal/mol and the “folding stability dG unfold” value [3] was 2.47 ± 0.14 kcal/mol.

In the case of “SAGGSAGGSKAKIEVLEVFPDYIVYKIETENPVIAVIVPLPNGKVKIFVFNPNGEPIAEFELGSAGGSAGGS [r12_1061_TrMRF]”, the “folding stability dG unfold” value [1] is reported as 2.04 ± 0.18 kcal/mol, the “folding stability dG unfold” value [2] is reported as 3.88 ± 0.062 kcal/mol and the “folding stability dG unfold” value [3] is reported as 3.4 ± 0.17 kcal/mol.

In the case of “SAGGKFDIMVKVEPPDGKEEELPIKFDSPEEIIEEARAIAEQHGPGDKLKVEIYYPGTGRPIEFEIPSAGGS [r8_107_TrROS]”, the “folding stability dG unfold” value [1] is reported as 0.799 ± 0.043 kcal/mol, the “folding stability dG unfold” value [2] is reported as -0.17 ± 0.18 kcal/mol and the “folding stability dG unfold” value [3] is reported as 0.336 ± 0.34 kcal/mol.

In the case of “SAGGSAGGMVTSTDPATGIVYSLDPTTGVWSAQTVTLPPITIPVSEVPELLKALPPGTPILVLASAGGSAGG [r6_104_JUSTAS]”, the “folding stability dG unfold” value [1] is reported as 1.01 ± 0.016 kcal/mol, the “folding stability dG unfold” value [2] is reported as 1.16 ± 0.064 kcal/mol and the “folding stability dG unfold” value [3] is reported as 1.14 ± 0.037 kcal/mol.

In the case of “SAGGSAGGPPPAKVVEVREVTLEDLENLDKLLVVFPDGKVYTSPEALRKWLEEGKPVLVAVFEGSAGGSAGG [r6_827_TrMRF]”, the “folding stability dG unfold” value [1] is reported as 1.6 ± 0.084 kcal/mol, the “folding stability dG unfold” value [2] is reported as 1.96 ± 0.049 kcal/mol and the “folding stability dG unfold” value [3] is reported as 1.88 ± 0.15 kcal/mol.

For “SAGGSRTVLLYDPDNPRPYIVEYDPATGTLRIYDPETGELVAEFPIPDLKDIEAPVVPNGILLGAIVDSAGG [r13_720_TrMRF]”, the “folding stability dG unfold” value [1] was 1.03 ± 0.023 kcal/mol, the “folding stability dG unfold” value [2] was 1.998 ± 0.018 kcal/mol and the “folding stability dG unfold” value [3] was 1.68 ± 0.075 kcal/mol.

With “SAGGSAGGSAGGGSVVTTETSVSPNGVVTTTTTTTFLDPDGNPLGTTTTTTAHAAPPTTSAGGSAGGSAGGS [r10_403_JUSTAS]” the “folding stability dG unfold” value [1] was 2.58 ± 0.076 kcal/mol, the “folding stability dG unfold” value [2] was 1.8 ± 0.031 kcal/mol and the “folding stability dG unfold” value [3] was 2.12 ± 0.024 kcal/mol.

In the case of “SAGGSADPDSPYVIRFNKPYTTFSPDGTPIELTEDVLKRFKSEEEAKKAKEELEKKGAKVEPVEGSSAGGSA [r15_117_JUSTAS]”, the “folding stability dG unfold” value [1] is reported as -0.767 ± 0.41 kcal/mol, the “folding stability dG unfold” value [2] is reported as 0.242 ± 0.31 kcal/mol and the “folding stability dG unfold” value [3] is reported as -0.159 ± 0.23 kcal/mol.

For “SAGGSAGGSAGPEWYVVMRVENPGTGKEVHFIGPWDDFKEKLPPSNVKMEWHLIPADALKSAGGSAGGSAGG [r11_334_TrROS]”, the “folding stability dG unfold” value [1] was 0.0887 ± 0.066 kcal/mol, the “folding stability dG unfold” value [2] was 0.666 ± 0.06 kcal/mol and the “folding stability dG unfold” value [3] was 0.494 ± 0.061 kcal/mol.

For “SAGGSAGGSAGGNNLYSTSTTVLSTVPVRPDETVTRPGTGAPVSPSETVALSTTSTAPSLSAGGSAGGSAGG [r11_793_JUSTAS]”, the “folding stability dG unfold” value [1] was 0.629 ± 0.026 kcal/mol, the “folding stability dG unfold” value [2] was -0.729 ± 0.081 kcal/mol and the “folding stability dG unfold” value [3] was 0.246 ± 0.054 kcal/mol.

For “SAGGATIELEAEEHPETKKITIYVKSENPILTIEKIAKELKEKEDDIELTLVNEDGVPYTIKLEDLISAGGS [r8_236_TrMRF]”, the “folding stability dG unfold” value [1] was -0.957 ± 0.47 kcal/mol, the “folding stability dG unfold” value [2] was 0.38 ± 0.2 kcal/mol and the “folding stability dG unfold” value [3] was 0.217 ± 0.3 kcal/mol.

In the case of “SAGEKVEITLVVKVEKDEDGRYRLTEEELREIAKALGLDFEVKSVEIERVPGYLVIRVTVDGKEYEFLSAGG [r19_398_TrROS_Hall]”, the “folding stability dG unfold” value [1] is reported as 2.95 ± 0.089 kcal/mol, the “folding stability dG unfold” value [2] is reported as 3.04 ± 0.033 kcal/mol and the “folding stability dG unfold” value [3] is reported as 2.98 ± 0.069 kcal/mol.

In the case of “SAGKELVLRVRLYRPVPLEEPRVEEREVVVPRKEDEPIEKVVEELLEPDWVLEVEVFDEGKLIERYYTHSAG [r5_278_TrMRF]”, the “folding stability dG unfold” value [1] is reported as 0.721 ± 0.075 kcal/mol, the “folding stability dG unfold” value [2] is reported as 1.36 ± 0.22 kcal/mol and the “folding stability dG unfold” value [3] is reported as 1.11 ± 0.2 kcal/mol.

For “SAGGSAGPKVEVELFPVPPFAPGSEFVLLVKTEDGDVILQRFRVKLEGNEPKIEPLGSIVLKPDELSAGGSA [r15_636_TrMRF]”, the “folding stability dG unfold” value [1] was 1.08 ± 0.036 kcal/mol, the “folding stability dG unfold” value [2] was 2.09 ± 0.062 kcal/mol and the “folding stability dG unfold” value [3] was 1.78 ± 0.1 kcal/mol.
